Data published in PMC5585873.

Columns and labels:
[1] = system: CCCCCCOS(=O)(=O)O; assay: purified protein; conditions: 10 mM tris-HCl, pH 7.4, 25 °C, 0.16 μM enzyme
[2] = substrate: CCCCCCOS(=O)(=O)O; assay: LC-MS of substrate depletion, hyperbolic fit; assay type: biochemical, Saccharomyces cerevisiae; conditions: 10 mM tris-HCl, pH 7.4, 25 °C, 1.0 μM enzyme

Row | Molecule | Km [1] | kcat [1] | Km [2] | kcat [2]
1 | SdsA1 (Pseudomonas aeruginosa PAO1) | 110 ± 17 µM | 1.07 ± 0.45 s⁻¹ |  | 
2 | Bds1 (Saccharomyces cerevisiae S288C) (protein) MIGAFKRNRGSSQSFAKECQPSTLKANLEVAKELPFSDRRDFEDATQGYIGSLSDEQIIGPDGGVVWCMKSYGFLEPETPANTVNPSLWRQAQLNAIHGLFKITDNVYQVRGLDISNMTIIEGNTSLIIIDTLFTTETAQESLKLYYRHRPQKPVRTVIYTHSHSDHYGGVKGIVKEADVKSGEVQIIAPVGFMESVVAENILAGNAMHRRSQYQFGMLLSPSVKGHVDCGIGKAASHGTVTLIAPTIIIEEPVEERTIDGVDFVFQLAPGSEAPSEMLIYMPQQRVLNMAEDVTHHMHNLYALRGVEVRDGNQWAKYIDAARVAFGSKTDVLIAQHHWPTTGQMRINELLKKQRDMYKFIHDQTLRLLNQGYTSRDIAETLRMPSSLEQEWSTRGYYGTLSHNVKAVYQKYLGWYDANPANLNPLPPVAYAKKAVEYMGGADAVLARAYKDFQKGEFRWVASVVNQLVFADPNNHQARELCADALEQLGYQAEASTWRNAYLVGAMELRQGVPKRRSTGKRNNIAVLNNEMFFDFLAVRLNATKAEGKIIVSNWCFINSNERFVITLENCALTYIQGWQTDADATITLKRTTFEALLANEITMVDFLRSKEVEIEGNRLRIEELLKLFDDFDQSFPVVEPMGGST |  |  | 300 ± 115 µM | 0.0067 ± 0.0017 s⁻¹
